Assay results: patent publication US20240101670A1 (Eli Lilly, published 2024)
“And” between values parts separate entries of the source, which are not always exact repeats. Identical values can stand only once.

What was measured:
human LAIR1 on cells [1] = target: T1, human LAIR1 on cells (human, UniProt Q6GTX8 22-287); assay: flow cytometry, primary human CD4+ T cells (endogenous LAIR1)
T1 construct: also called hLAIR1; Jurkat-hLAIR1+
T1 sequence: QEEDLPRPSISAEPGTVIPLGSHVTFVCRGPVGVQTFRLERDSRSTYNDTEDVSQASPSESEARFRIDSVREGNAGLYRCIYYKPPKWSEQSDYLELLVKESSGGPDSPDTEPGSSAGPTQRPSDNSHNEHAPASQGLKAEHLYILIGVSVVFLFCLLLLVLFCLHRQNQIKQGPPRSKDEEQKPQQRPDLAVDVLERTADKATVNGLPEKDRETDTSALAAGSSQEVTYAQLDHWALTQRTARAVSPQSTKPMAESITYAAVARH
Protocol: (§1) The anti-human LAIR1 antibodies were evaluated for binding to human and cynomolgus monkey (cyno) LAIR1 engineered cell lines and primary human T cells that endogenously express LAIR1. Jurkat-hLAIR1+ (Jurkat cell overexpressing human LAIR1), Jurkat-LAIR1ko (Jurkat cell knocking out human LAIR1), Jurkat-cyLAIR1+ cells (Jurkat LAIR1ko cell expressing cyno LAIR1), and primary human T cells were incubated with the anti-human LAIR1 test antibodies. […] Cells were then washed and incubated with anti-human IgG Alexa Fluor 647 secondary antibody for 20 minutes at 4° C. Cells were then washed and antibody binding was evaluated by flow cytometry. For primary human T cells, cells were also stained for CD4 and CD8 to delineate CD4+ and CD8+ T cells.

human LAIR1 on cells [2] = target: T1, human LAIR1 on cells; assay: flow cytometry, primary human CD8+ T cells (endogenous LAIR1)
Protocol: as §1

human LAIR1 on cells [3] = target: T1, human LAIR1 on cells; assay: cell-based or functional assay
human LAIR1 on cells [4] = target: T1, human LAIR1 on cells; assay: cell-based or functional assay; remark: listed apart in the source
LAIR2 = target: T2, LAIR2 (human, UniProt Q6ISS4 22-152); assay: ELISA on hLAIR2, O.D.560 against antibody concentration
T2 construct: also called human LAIR2
T2 sequence (looked up): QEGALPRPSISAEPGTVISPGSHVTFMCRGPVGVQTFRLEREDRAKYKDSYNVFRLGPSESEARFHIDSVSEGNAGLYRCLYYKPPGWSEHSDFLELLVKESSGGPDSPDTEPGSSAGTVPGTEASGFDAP

human LAIR1 on cells [5] = target: T1, human LAIR1 on cells; assay: flow cytometry, Jurkat-hLAIR1+ cells
Protocol: as §1

[6] = target: T3, soluble, extracellular domain (ECD) of LAIR1 (human, UniProt Q6GTX8 22-163); assay: SPR, Biacore 8K, 37 °C, antibody captured on anti-human kappa, LAIR1-ECD as analyte
T3 construct: Produced recombinantly; also called LAIR1-ECD; LAIR1 ECD protein
T3 chain: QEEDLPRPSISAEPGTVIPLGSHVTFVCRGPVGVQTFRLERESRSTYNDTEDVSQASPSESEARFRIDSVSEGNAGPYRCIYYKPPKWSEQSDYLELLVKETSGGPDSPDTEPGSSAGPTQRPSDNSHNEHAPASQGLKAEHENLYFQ
Protocol: Antibody binding affinity and kinetics were determined by surface plasmon resonance (SPR) using a Biacore 8K (Cytivia Life Sciences). Measurements were performed at 37° C. using HBS-EP+ as the running buffer (150 mM sodium chloride, 3 mM EDTA, 0.05% (w/v) surfactant P-20, and 10 mM HEPES, pH7.4). Binding experiments used the soluble, extracellular domain (ECD) of LAIR1 (SEQ ID NO: 17), produced recombinantly, which was diluted to working concentration in HBS-EP+ containing 0.1 mg/mL Bovine serum albumin. Goat anti-Human kappa (Southern Biotech) was immobilized on all eight flow cells of a CM4 sensor chip using an amine coupling kit.
Binding was evaluated using multiple analytical cycles. Each cycle is performed at a flow rate of 30 μL/minute and consists of the following steps: injection of antibody over a different flow cell (25 μL of antibody at 0.5 μg/mL at 10 μL/minute), injection of 75 μL (30 μL/min, for 150 seconds) of each LAIR1-ECD dilution (starting at 1 μM and using three-fold serial dilutions to 1.4 nM for each cycle, with one injection for each concentration) followed by a 1200 second delay for dissociation, and chip surface regeneration using three 15 μL injections (30 μL/min, for 30 seconds) of 10 mM glycine hydrochloride, pH1.7. Association and dissociation rates for each cycle were determined by fitting of the biosensor data to a simple 1:1 association model using the provided instrument analysis software to extract the kₒₙ and koff rate constants; the equilibrium binding constant KD was calculated using the relationship Kd=koff/kₒₙ.

human LAIR1 on cells [7] = target: T1, human LAIR1 on cells; assay: cell-based or functional assay; remark: listed apart in the source
Human C1q = target: T4, Human C1q (human, UniProt P02745 23-245; P02746 28-253; P02747 29-245); assay: ELISA: antibody coated on the plate at the concentration shown, human C1q added at 10 ug/mL, detection with sheep anti-human C1q-HRP, OD450
T4 construct: Bought (MS Biomedical); also called complement component C1q
T4 sequence (P02745 23-245 limits assumed, chain 1 of 3): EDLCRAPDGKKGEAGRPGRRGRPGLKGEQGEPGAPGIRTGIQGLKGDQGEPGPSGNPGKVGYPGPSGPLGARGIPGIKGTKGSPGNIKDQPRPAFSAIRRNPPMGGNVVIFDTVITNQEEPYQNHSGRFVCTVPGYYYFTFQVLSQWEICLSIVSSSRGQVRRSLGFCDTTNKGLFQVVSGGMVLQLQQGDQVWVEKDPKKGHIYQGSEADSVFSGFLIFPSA
T4 sequence (P02746 28-253 limits assumed, chain 2 of 3): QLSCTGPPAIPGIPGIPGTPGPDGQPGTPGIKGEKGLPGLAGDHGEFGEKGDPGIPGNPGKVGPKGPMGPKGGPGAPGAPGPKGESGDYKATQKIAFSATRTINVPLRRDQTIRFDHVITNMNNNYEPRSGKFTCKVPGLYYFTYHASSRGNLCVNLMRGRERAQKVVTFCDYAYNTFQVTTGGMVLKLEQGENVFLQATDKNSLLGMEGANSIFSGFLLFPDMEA
T4 sequence (P02747 29-245 limits assumed, chain 3 of 3): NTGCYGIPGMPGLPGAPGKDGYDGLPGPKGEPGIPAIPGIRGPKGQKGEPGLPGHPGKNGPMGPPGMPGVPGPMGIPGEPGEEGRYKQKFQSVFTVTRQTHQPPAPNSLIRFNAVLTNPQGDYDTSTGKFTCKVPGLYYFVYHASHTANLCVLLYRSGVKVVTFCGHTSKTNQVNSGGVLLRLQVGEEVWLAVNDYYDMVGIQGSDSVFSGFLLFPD
Protocol: Testing was performed in duplicate wells. The plate was sealed and incubated overnight at 4° C. The coating reagent was removed from each well, and 200 μL/well of casein blocking reagent (Thermo) was added. The plate was sealed and incubated for 2 hours at room temperature (RT). Each well was washed 3 times with wash buffer (1×TBE with 0.05% Tween 20). One hundred microliters per well of Human C1q (MS Biomedical) at 10 μg/mL diluted in casein blocking reagent was added and incubated for 3 hours at RT. The plate was then washed three times with wash buffer before 100 μL/well of a 1:800 times dilution of Sheep anti-human C1q-HRP (Abcam #ab46191) in casein blocker was added and incubated for 1 hour at RT. The plate was washed 6 times with wash buffer, and 100 μL/well of TMB Substrate (Pierce) was added to each well and incubated for 7 minutes. […] Optical density was immediately measured using a colorimetric microplate reader set to 450 nm.

[8] = target: T5, cynomolgus monkey LAIR1 on cells (cynomolgus monkey); assay: flow cytometry, Jurkat-cyLAIR1+ cells
T5 construct: whole, on cells; Jurkat LAIR1ko cells expressing cyno LAIR1; also called cyno LAIR1; cyLAIR1
Protocol: as §1

human LAIR1 on cells [9] = target: T1, human LAIR1 on cells; assay: in vivo receptor occupancy by FACS on splenocytes, CD8 T cells; fit table; log10 of the dose, unit not given
Description: Human peripheral blood mononuclear cells (PBMCs) were engrafted into NSG mice where the human immune cells recognize the mouse as foreign and mount an immune response resulting in Graft versus Host Disease (GvHD). […] Blood was obtained on day 5 by retro-orbital sinus and day 8 by cardiac puncture and processed for analyses of serum cytokines (MSD human pro-inflammatory cytokine panel) and drug exposure (antigen capture ELISA).

human LAIR1 on cells [10] = target: T1, human LAIR1 on cells; assay: cell-based or functional assay; remark: listed apart in the source
[11] = target: T5, cynomolgus monkey LAIR1 on cells; assay: cell-based or functional assay
human LAIR1 on cells [12] = target: T1, human LAIR1 on cells; assay: in vivo receptor occupancy by FACS on splenocytes, CD4 T cells; fit table; log10 of the dose, unit not given
human LAIR1 on cells [13] = target: T1, human LAIR1 on cells; assay: in vivo receptor occupancy by FACS on splenocytes, Treg; fit table; log10 of the dose, unit not given

B1: mAb4 (antibody, human IgG4 S228P, kappa)
heavy: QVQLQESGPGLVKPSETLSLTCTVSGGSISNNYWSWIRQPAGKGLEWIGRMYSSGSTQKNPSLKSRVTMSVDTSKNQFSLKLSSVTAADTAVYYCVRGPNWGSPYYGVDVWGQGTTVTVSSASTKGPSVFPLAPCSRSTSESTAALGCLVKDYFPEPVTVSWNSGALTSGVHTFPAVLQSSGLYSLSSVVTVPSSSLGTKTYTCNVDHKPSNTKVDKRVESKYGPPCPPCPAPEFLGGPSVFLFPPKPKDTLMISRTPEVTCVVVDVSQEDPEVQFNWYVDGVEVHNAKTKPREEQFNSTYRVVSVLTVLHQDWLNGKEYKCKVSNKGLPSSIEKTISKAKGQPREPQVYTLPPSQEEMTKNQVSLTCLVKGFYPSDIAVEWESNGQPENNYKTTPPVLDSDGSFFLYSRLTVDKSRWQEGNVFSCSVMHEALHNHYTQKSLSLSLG
light: DIVMTQSPLSLPVTPGEPASISCRSSPSLLHSDGYNWLDWYLQKPGQSPQLLIYLGSNRASGVPDRFSGSGSGTDFTLKISRVEAEDVGVYYCMQAHQTPFTFGQGTKVEIKRTVAAPSVFIFPPSDEQLKSGTASVVCLLNNFYPREAKVQWKVDNALQSGNSQESVTEQDSKDSTYSLSSTLTLSKADYEKHKVYACEVTHQGLSSPVTKSFNRGEC
notes: also called anti-human LAIR1 mAb4; LAIR1 agonist antibody
- EC50 (human LAIR1 on cells [1]): 0.0162 µg/mL
- EC50 (human LAIR1 on cells [2]): 0.0349 µg/mL
- Inhibition of IFN-γ response at 1 µg/mL (% inhibition vs. no antibody), primary human T cells (human LAIR1 on cells [3]): 41.1%
- Inhibition of IL-6 response at 8 ng/mL (% inhibition vs. no antibody), primary human B cells (human LAIR1 on cells [4]): 42.7%
- binding result (LAIR2): no binding (tested: 10 ug/ml)
- EC50 (human LAIR1 on cells [5]): 0.0565 µg/mL
- Kd [6]: 291 pM
- koff [6]: 0.000317 s⁻¹
- kon [6]: 1.09e+06 M⁻¹ s⁻¹
- IC50 of inhibition of B cell IL-6 response to BCR stimulation (human LAIR1 on cells [7]): 0.0002 nM and 0.03 ng/mL
- IC50 of inhibition of Jurkat-hLAIR1+ NFAT activation (human LAIR1 on cells [7]): 45 pM
- binding result (Human C1q): no binding (tested: 10 ug/mL)
- EC50 [8]: 0.0893 µg/mL
- LogIC50 of % receptor occupancy, CD8 T cells (human LAIR1 on cells [9]): -0.864
- IC50 of antibody activity, Jurkat-hLAIR1+ NFAT (human LAIR1 on cells [10]): 0.00666 µg/mL
- Inhibition of NFAT Activity (% inhibition vs. no antibody), Jurkat-hLAIR1+ (human LAIR1 on cells [10]): 60.4%
- Inhibition of NFAT Activity (% inhibition vs. no antibody), Jurkat-cyLAIR1+ [11]: 65.5%
- LogIC50 of % receptor occupancy, CD4 T cells (human LAIR1 on cells [12]): -0.933
- LogIC50 of % receptor occupancy, Treg (human LAIR1 on cells [13]): -0.771

B2: mAb2 (antibody, human IgG2, kappa)
heavy: QVQLQESGPGLVKPSETLSLTCTVSGGSISNNYWSWIRQPAGKGLEWIGRMYSSGSTQKNPSLKSRVTMSVDTSKNQFSLKLSSVTAADTAVYYCVRGPNWGSPYYGVDVWGQGTTVTVSSASTKGPSVFPLAPSSRSTSESTAALGCLVKDYFPEPVTVSWNSGALTSGVHTFPAVLQSSGLYSLSSVVTVPSSNFGTQTYTCNVDHKPSNTKVDKTVERKCCVECPPCPAPPVAGPSVFLFPPKPKDTLMISRTPEVTCVVVDVSHEDPEVQFNWYVDGMEVHNAKTKPREEQFNSTFRVVSVLTVVHQDWLNGKEYKCKVSNKGLPAPIEKTISKTKGQPREPQVYTLPPSREEMTKNQVSLTCLVKGFYPSDIAVEWESNGQPENNYKTTPPMLDSDGSFFLYSKLTVDKSRWQQGNVFSCSVMHEALHNHYTQKSLSLSPG
light: DIVMTQSPLSLPVTPGEPASISCRSSPSLLHSDGYNWLDWYLQKPGQSPQLLIYLGSNRASGVPDRFSGSGSGTDFTLKISRVEAEDVGVYYCMQAHQTPFTFGQGTKVEIKRTVAAPSVFIFPPSDEQLKSGTASVVCLLNNFYPREAKVQWKVDNALQSGNSQESVTEQDSKDSTYSLSSTLTLSKADYEKHKVYACEVTHQGLSSPVTKSFNRGEC
notes: also called anti-human LAIR1 antibody mAb2
- EC50 (human LAIR1 on cells [1]): 0.0288 µg/mL
- EC50 (human LAIR1 on cells [2]): 0.0414 µg/mL
- Inhibition of IFN-γ response at 1 µg/mL (% inhibition vs. no antibody), primary human T cells (human LAIR1 on cells [3]): 45.8%
- Inhibition of IL-6 response at 8 ng/mL (% inhibition vs. no antibody), primary human B cells (human LAIR1 on cells [4]): 35.4%
- EC50 (human LAIR1 on cells [5]): 0.058 µg/mL
- Kd [6]: 312 pM
- koff [6]: 0.000341 s⁻¹
- kon [6]: 1.09e+06 M⁻¹ s⁻¹
- EC50 [8]: 0.0824 µg/mL
- IC50 of antibody activity, Jurkat-hLAIR1+ NFAT (human LAIR1 on cells [10]): 0.00858 µg/mL
- Inhibition of NFAT Activity (% inhibition vs. no antibody), Jurkat-hLAIR1+ (human LAIR1 on cells [10]): 49.8%
- Inhibition of NFAT Activity (% inhibition vs. no antibody), Jurkat-cyLAIR1+ [11]: 59.6%

B3: mAb1 (antibody, human IgG2, kappa)
heavy: QVQLQESGPGLVKPSETLSLTCTAFGGSISGHYWSWIRQPAGKGLEWIGRIYPSGGTNKNPSLKSRVTMSVDTSKNQFSLKLSSVTAADTAVYYCVRDYWDDYYGMDVWGQGTTVTVSSASTKGPSVFPLAPSSRSTSESTAALGCLVKDYFPEPVTVSWNSGALTSGVHTFPAVLQSSGLYSLSSVVTVPSSNFGTQTYTCNVDHKPSNTKVDKTVERKCCVECPPCPAPPVAGPSVFLFPPKPKDTLMISRTPEVTCVVVDVSHEDPEVQFNWYVDGMEVHNAKTKPREEQFNSTFRVVSVLTVVHQDWLNGKEYKCKVSNKGLPAPIEKTISKTKGQPREPQVYTLPPSREEMTKNQVSLTCLVKGFYPSDIAVEWESNGQPENNYKTTPPMLDSDGSFFLYSKLTVDKSRWQQGNVFSCSVMHEALHNHYTQKSLSLSPG
light: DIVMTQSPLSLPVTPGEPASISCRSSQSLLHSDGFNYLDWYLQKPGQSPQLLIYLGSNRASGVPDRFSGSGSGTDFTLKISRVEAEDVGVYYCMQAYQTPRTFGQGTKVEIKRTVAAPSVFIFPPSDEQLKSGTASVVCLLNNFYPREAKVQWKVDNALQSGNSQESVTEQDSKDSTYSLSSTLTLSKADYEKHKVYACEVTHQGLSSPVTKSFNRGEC
notes: also called anti-human LAIR1 antibody mAb1
- EC50 (human LAIR1 on cells [1]): 0.037 µg/mL
- EC50 (human LAIR1 on cells [2]): 0.0489 µg/mL
- Inhibition of IFN-γ response at 1 µg/mL (% inhibition vs. no antibody), primary human T cells (human LAIR1 on cells [3]): 35.7%
- Inhibition of IL-6 response at 8 ng/mL (% inhibition vs. no antibody), primary human B cells (human LAIR1 on cells [4]): 60.2%
- EC50 (human LAIR1 on cells [5]): 0.0548 µg/mL
- Kd [6]: 121 pM
- koff [6]: 0.000174 s⁻¹
- kon [6]: 1.44e+06 M⁻¹ s⁻¹
- EC50 [8]: 0.0784 µg/mL
- IC50 of antibody activity, Jurkat-hLAIR1+ NFAT (human LAIR1 on cells [10]): 0.00942 µg/mL
- Inhibition of NFAT Activity (% inhibition vs. no antibody), Jurkat-hLAIR1+ (human LAIR1 on cells [10]): 54.2%
- Inhibition of NFAT Activity (% inhibition vs. no antibody), Jurkat-cyLAIR1+ [11]: 44.2%
